# In article PMC12293770, “Mechanistic Insights into the Bornyl Diphosphate Synthase from Lavandula angustifolia” (Current Issues in Molecular Biology, 2025):
# B1: LaBPPS (WT) (Lavandula angustifolia subsp. angustifolia) (protein)
# chain: MTAARSFMAINSNMTTDHLHKFGKKNLEFGQGYSCNNASPMRLRPCCSLKLSTNAESQLDSTRRSGMYKPTLWDFDRIQSLNSVYTEEKYSTRACDLIQQVKKLLEESDWFRQLQLIDDLQRLGLSYRFDDEINLILNTIYFEKKFCEKEMDLYSTSLAFRLLRQHGLKVSQEVFDCFKNEEGDFEARLGDETNGILEMCEASFLATEGEETLELARLFTTNILQKKLDDERNELLIMDDYLRTLIRHSLDLPLYWRVQRPSARWFIEAYATRSDMNPIMLELAKLDFNIVQATHQEELKQVSRWWKESRLAEKLPFARDRVVENYLWNRGMLFPPQYGYPRIMNAKLFVLITVLDDIYDVYGTLEETQLFTNLITRWDVEAIGQLPEYMRICYMAIDNNINELAYEVLKQHGLLIIQDLRKFWADLCVAYGKEAEWYYTGYKPTLEEYLEVAWVSISAHLILGYMFFLTSNPIEKEASQSLSNYHNIIRNSAMVLRLADDLGTSPYEMQRGDVPKAVECYMNENGASTEEAREYVKHLLREVWKETNGERFKESPFTPSFMRICADLGRMAQFMYQHGDGHGIRNLQMEDRIQSLIFEPIV
# notes: full-length, codon-optimised gene, pHXGWA, E. coli Rosetta (DE3) pLysS, Talon resin, thrombin-cleaved; monomer by DLS
# B2: ∆1–58 (Lavandula angustifolia subsp. angustifolia) (protein)
# chain: LDSTRRSGMYKPTLWDFDRIQSLNSVYTEEKYSTRACDLIQQVKKLLEESDWFRQLQLIDDLQRLGLSYRFDDEINLILNTIYFEKKFCEKEMDLYSTSLAFRLLRQHGLKVSQEVFDCFKNEEGDFEARLGDETNGILEMCEASFLATEGEETLELARLFTTNILQKKLDDERNELLIMDDYLRTLIRHSLDLPLYWRVQRPSARWFIEAYATRSDMNPIMLELAKLDFNIVQATHQEELKQVSRWWKESRLAEKLPFARDRVVENYLWNRGMLFPPQYGYPRIMNAKLFVLITVLDDIYDVYGTLEETQLFTNLITRWDVEAIGQLPEYMRICYMAIDNNINELAYEVLKQHGLLIIQDLRKFWADLCVAYGKEAEWYYTGYKPTLEEYLEVAWVSISAHLILGYMFFLTSNPIEKEASQSLSNYHNIIRNSAMVLRLADDLGTSPYEMQRGDVPKAVECYMNENGASTEEAREYVKHLLREVWKETNGERFKESPFTPSFMRICADLGRMAQFMYQHGDGHGIRNLQMEDRIQSLIFEPIV
# notes: N-terminal truncation, residues 1-58 deleted; E. coli, Talon resin, thrombin-cleaved
# B3: ∆1–74 (Lavandula angustifolia subsp. angustifolia) (protein)
# chain: FDRIQSLNSVYTEEKYSTRACDLIQQVKKLLEESDWFRQLQLIDDLQRLGLSYRFDDEINLILNTIYFEKKFCEKEMDLYSTSLAFRLLRQHGLKVSQEVFDCFKNEEGDFEARLGDETNGILEMCEASFLATEGEETLELARLFTTNILQKKLDDERNELLIMDDYLRTLIRHSLDLPLYWRVQRPSARWFIEAYATRSDMNPIMLELAKLDFNIVQATHQEELKQVSRWWKESRLAEKLPFARDRVVENYLWNRGMLFPPQYGYPRIMNAKLFVLITVLDDIYDVYGTLEETQLFTNLITRWDVEAIGQLPEYMRICYMAIDNNINELAYEVLKQHGLLIIQDLRKFWADLCVAYGKEAEWYYTGYKPTLEEYLEVAWVSISAHLILGYMFFLTSNPIEKEASQSLSNYHNIIRNSAMVLRLADDLGTSPYEMQRGDVPKAVECYMNENGASTEEAREYVKHLLREVWKETNGERFKESPFTPSFMRICADLGRMAQFMYQHGDGHGIRNLQMEDRIQSLIFEPIV
# notes: N-terminal truncation, residues 1-74 deleted; E. coli, Talon resin, thrombin-cleaved
# B4: ∆59–74 (Lavandula angustifolia subsp. angustifolia; DEL59-74) (protein)
# chain: MTAARSFMAINSNMTTDHLHKFGKKNLEFGQGYSCNNASPMRLRPCCSLKLSTNAESQFDRIQSLNSVYTEEKYSTRACDLIQQVKKLLEESDWFRQLQLIDDLQRLGLSYRFDDEINLILNTIYFEKKFCEKEMDLYSTSLAFRLLRQHGLKVSQEVFDCFKNEEGDFEARLGDETNGILEMCEASFLATEGEETLELARLFTTNILQKKLDDERNELLIMDDYLRTLIRHSLDLPLYWRVQRPSARWFIEAYATRSDMNPIMLELAKLDFNIVQATHQEELKQVSRWWKESRLAEKLPFARDRVVENYLWNRGMLFPPQYGYPRIMNAKLFVLITVLDDIYDVYGTLEETQLFTNLITRWDVEAIGQLPEYMRICYMAIDNNINELAYEVLKQHGLLIIQDLRKFWADLCVAYGKEAEWYYTGYKPTLEEYLEVAWVSISAHLILGYMFFLTSNPIEKEASQSLSNYHNIIRNSAMVLRLADDLGTSPYEMQRGDVPKAVECYMNENGASTEEAREYVKHLLREVWKETNGERFKESPFTPSFMRICADLGRMAQFMYQHGDGHGIRNLQMEDRIQSLIFEPIV
# notes: internal deletion of residues 59-74; E. coli, Talon resin, thrombin-cleaved
# B5: ∆578–602 (Lavandula angustifolia subsp. angustifolia) (protein)
# chain: MTAARSFMAINSNMTTDHLHKFGKKNLEFGQGYSCNNASPMRLRPCCSLKLSTNAESQLDSTRRSGMYKPTLWDFDRIQSLNSVYTEEKYSTRACDLIQQVKKLLEESDWFRQLQLIDDLQRLGLSYRFDDEINLILNTIYFEKKFCEKEMDLYSTSLAFRLLRQHGLKVSQEVFDCFKNEEGDFEARLGDETNGILEMCEASFLATEGEETLELARLFTTNILQKKLDDERNELLIMDDYLRTLIRHSLDLPLYWRVQRPSARWFIEAYATRSDMNPIMLELAKLDFNIVQATHQEELKQVSRWWKESRLAEKLPFARDRVVENYLWNRGMLFPPQYGYPRIMNAKLFVLITVLDDIYDVYGTLEETQLFTNLITRWDVEAIGQLPEYMRICYMAIDNNINELAYEVLKQHGLLIIQDLRKFWADLCVAYGKEAEWYYTGYKPTLEEYLEVAWVSISAHLILGYMFFLTSNPIEKEASQSLSNYHNIIRNSAMVLRLADDLGTSPYEMQRGDVPKAVECYMNENGASTEEAREYVKHLLREVWKETNGERFKESPFTPSFMRICADLGRMAQFMYQ
# notes: C-terminal truncation, residues 578-602 deleted; E. coli, Talon resin, thrombin-cleaved
# Columns and labels:
# Test in all cases: GC-MS of hexane phase, Hanes-Woolf plot
# Type in all cases: biochemical, Lavandula angustifolia
# Settings in all cases: 25 mM Tris-HCl pH 7.5, 10 mM MgCl2, 1 mM MnCl2, 30 °C, 2 h
# [1] = substrate: CC(C)=CCC/C(C)=C/COP(=O)(O)OP(=O)(O)O
# Text: GC-MS of hexane phase, Hanes-Woolf plot on LaBPPS (WT)
# [2] = substrate: CC(C)=CCC/C(C)=C/COP(=O)(O)OP(=O)(O)O; remark: listed apart in the source
# Text: GC-MS of hexane phase, Hanes-Woolf plot on ∆1–58
# [3] = substrate: CC(C)=CCC/C(C)=C/COP(=O)(O)OP(=O)(O)O; remark: listed apart in the source
# Text: GC-MS of hexane phase, Hanes-Woolf plot on ∆1–74
# [4] = substrate: CC(C)=CCC/C(C)=C/COP(=O)(O)OP(=O)(O)O; remark: listed apart in the source
# Text: GC-MS of hexane phase, Hanes-Woolf plot on ∆59–74
# [5] = substrate: CC(C)=CCC/C(C)=C/COP(=O)(O)OP(=O)(O)O; remark: listed apart in the source
# Text: GC-MS of hexane phase, Hanes-Woolf plot on ∆578–602
protein,measurement,setting,value
B1,Km,[1],29.37 ± 1.21 µM
same,kcat,[1],0.104 ± 0.00783 s⁻¹
B2,Km,[2],28.12 ± 1.75 µM
same,kcat,[2],0.113 ± 0.00583 s⁻¹
B3,Km,[3],41.72 ± 2.15 µM
same,kcat,[3],0.0532 ± 0.002 s⁻¹
B4,Km,[4],38.49 ± 2.58 µM
same,kcat,[4],0.0562 ± 0.007 s⁻¹
B5,Km,[5],14.83 ± 1.09 µM
same,kcat,[5],0.195 ± 0.0143 s⁻¹
